Measurements: article PMC6002859

Target: Plk1 (UniProt P53350)
Experiment: Myc-PP6R2 IP, Plk1 Western blot
Conditions: reference: wild type; sites S771

- binding against the reference: lost
Substance: PP6R2 (SAPS2) (from UniProt O75170) S771A (PBD2 mutant)
